Results published in the supplement of paper PMC12764529.
± gives the half width of the 95% confidence interval.

experiment: folding stability dG unfold from chymotrypsin proteolysis; higher = more stable
Method in brief: (§1)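 Designed mini-proteins with no cysteine and under 80 residues were kept only if AlphaFold2 dimer inter-PAE was above 15. In a PA-tagged cDNA display construct, they were digested with trypsin and chymotrypsin and then sequenced. K50 was inferred by Bayesian fitting of counts, and unfolding free energy was derived per protease or combined against a sequence-predicted unfolded-state K50 and a shared folded-state K50.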

Sequence | folding stability dG unfold
SAGGSAGGMEKYKVTITIERPDPNNPDVKTTEVTEVVLTPEEIEKLKKELAPTGYRVEITVIDESAGGSAGG [r6_857_JUSTAS] | 2.51 ± 0.086 kcal/mol
SAMKPKEVVIEISVEELRKLAKELFPEKELTLEELKNLVKELLEKLGIKVKKVEIVKVDPEKKRIVIKVSAG [r14_303_TrROS_Hall] | 1.72 ± 0.083 kcal/mol
SAGGSAMITLEVEVPPGNAEEAAEAVAEELAEKLGVEVTIEKVEVEYDPVTNLTRVPVEIKINPPLSAGGSA [r15_70_JUSTAS] | 0.557 ± 0.11 kcal/mol
SAGGSAGGKIDLKDLKIVKIETVKNENGETFYRVVIEVDGKKIVLTVPENMSLEELLKKLKELSSAGGSAGG [r6_232_TrROS_Hall] | 4.22 ± 0.055 kcal/mol
SAGGSAGGSAMPLTSPEEAARHIKEALERLFPSSFPDRVIDPDVVVFTRPDGRVVALVKLKASAGGSAGGSA [r18_440_TrMRF] | 1.27 ± 0.073 kcal/mol
SAGMIEITLYPPKAVVDVTVTIGGESESRTIPVDGKSKEEVIEEAREEVKAEYPDKAITTKVTEVPGDGSAG [r5_180_JUSTAS] | 1.03 ± 0.098 kcal/mol
SAGGSAGGSAGGSNIEVHYFPDGAIVMTIREPNGWYIKIVARIPPDGNIKITEIELFPMSAGGSAGGSAGGS [r4_246_TrROS] | 3.78 ± 0.11 kcal/mol
SAGGSAMTITVTLTFKSEEEALAAIRELAEALGLEIESVEIRYDPETEEVTVTATIRLPPPPPELLSAGGSA [r15_254_TrROS_Hall] | 2.62 ± 0.033 kcal/mol
SAGGETVTLTLKVETLEELEALAKKLAEETGEEVTIEVIGPDGKKYTFKTPEELKNIPGATVKITIKKSAGG [r13_620_TrROS_Hall] | 2.96 ± 0.041 kcal/mol
SAGGSAGGSASMSYITKVEYKESPEGKLITTTTTTDPTSPNDVKTTTTVTPLPPLNPSPELKSAGGSAGGSA [r18_409_JUSTAS] | -0.829 ± 0.73 kcal/mol
SAGGSAGGYWMISVKIYDPEDGKPIAQMTFMFDSPEEAERIVEEIADALPPGYRVEVDIHPIPNSAGGSAGG [r6_690_TrROS] | 4.99 ± 0.14 kcal/mol
SAGGSAGGSAGVIRVKLKDGPVREIPLEDVPPELLNTPELLAAIEALAREAGYEIESIEASAGGSAGGSAGG [r11_467_TrMRF] | 2.22 ± 0.029 kcal/mol
SAGGSAGGSIKITIYDIMRMLGPNAPPAEWVEKVKHLAKWLADKLGLPDVEIEVEVMSPDQFPSAGGSAGGS [r12_666_TrROS] | 4.49 ± 0.13 kcal/mol
SAGGSAGGEVEIEVTEEEEVPGLPDQEIVTKAKLPDGKTVTIKRTVDPKTGKVSVSFSVIEPPLSAGGSAGG [r6_337_JUSTAS] | 0.355 ± 0.2 kcal/mol
SAGGSAGGSAGGSPLLDFPEPVTTLEETTVTVYFDTNDFTVTLNVTTEVTGDVKRPTVVGSAGGSAGGSAGG [r7_735_JUSTAS] | 0.464 ± 0.051 kcal/mol
SAGGERLTLEELEELLKNLPPGVEEVTITLKLEVEVRTEVRLNEDGSLETRTETRVTTELTLTLPKESAGGS [r16_708_TrROS_Hall] | 4.01 ± 0.4 kcal/mol
SAGGSAGGSAGGAPPPPVKVKVVEIEEEGGERRIRVENEDTGEVVELRVPKGAEVLEELSAGGSAGGSAGGS [r10_1038_TrROS_Hall] | 1.37 ± 0.055 kcal/mol

experiment: folding stability dG unfold from trypsin proteolysis; higher = more stable
Method in brief: as §1

Sequence | folding stability dG unfold
SAGGSAGGMEKYKVTITIERPDPNNPDVKTTEVTEVVLTPEEIEKLKKELAPTGYRVEITVIDESAGGSAGG [r6_857_JUSTAS] | 2.6 ± 0.14 kcal/mol
SAMKPKEVVIEISVEELRKLAKELFPEKELTLEELKNLVKELLEKLGIKVKKVEIVKVDPEKKRIVIKVSAG [r14_303_TrROS_Hall] | 2.77 ± 0.15 kcal/mol
SAGGSAMITLEVEVPPGNAEEAAEAVAEELAEKLGVEVTIEKVEVEYDPVTNLTRVPVEIKINPPLSAGGSA [r15_70_JUSTAS] | 1.18 ± 0.071 kcal/mol
SAGGSAGGKIDLKDLKIVKIETVKNENGETFYRVVIEVDGKKIVLTVPENMSLEELLKKLKELSSAGGSAGG [r6_232_TrROS_Hall] | 3.36 ± 0.13 kcal/mol
SAGGSAGGSAMPLTSPEEAARHIKEALERLFPSSFPDRVIDPDVVVFTRPDGRVVALVKLKASAGGSAGGSA [r18_440_TrMRF] | 0.877 ± 0.023 kcal/mol
SAGMIEITLYPPKAVVDVTVTIGGESESRTIPVDGKSKEEVIEEAREEVKAEYPDKAITTKVTEVPGDGSAG [r5_180_JUSTAS] | -0.437 ± 0.18 kcal/mol
SAGGSAGGSAGGSNIEVHYFPDGAIVMTIREPNGWYIKIVARIPPDGNIKITEIELFPMSAGGSAGGSAGGS [r4_246_TrROS] | 3.24 ± 0.11 kcal/mol
SAGGSAMTITVTLTFKSEEEALAAIRELAEALGLEIESVEIRYDPETEEVTVTATIRLPPPPPELLSAGGSA [r15_254_TrROS_Hall] | 2.73 ± 0.16 kcal/mol
SAGGETVTLTLKVETLEELEALAKKLAEETGEEVTIEVIGPDGKKYTFKTPEELKNIPGATVKITIKKSAGG [r13_620_TrROS_Hall] | 2.19 ± 0.13 kcal/mol
SAGGSAGGSASMSYITKVEYKESPEGKLITTTTTTDPTSPNDVKTTTTVTPLPPLNPSPELKSAGGSAGGSA [r18_409_JUSTAS] | -0.309 ± 0.085 kcal/mol
SAGGSAGGYWMISVKIYDPEDGKPIAQMTFMFDSPEEAERIVEEIADALPPGYRVEVDIHPIPNSAGGSAGG [r6_690_TrROS] | 3.82 ± 0.12 kcal/mol
SAGGSAGGSAGVIRVKLKDGPVREIPLEDVPPELLNTPELLAAIEALAREAGYEIESIEASAGGSAGGSAGG [r11_467_TrMRF] | 1.7 ± 0.038 kcal/mol
SAGGSAGGSIKITIYDIMRMLGPNAPPAEWVEKVKHLAKWLADKLGLPDVEIEVEVMSPDQFPSAGGSAGGS [r12_666_TrROS] | 3.3 ± 0.25 kcal/mol
SAGGSAGGEVEIEVTEEEEVPGLPDQEIVTKAKLPDGKTVTIKRTVDPKTGKVSVSFSVIEPPLSAGGSAGG [r6_337_JUSTAS] | 0.44 ± 0.19 kcal/mol
SAGGSAGGSAGGSPLLDFPEPVTTLEETTVTVYFDTNDFTVTLNVTTEVTGDVKRPTVVGSAGGSAGGSAGG [r7_735_JUSTAS] | 1.1 ± 0.044 kcal/mol
SAGGERLTLEELEELLKNLPPGVEEVTITLKLEVEVRTEVRLNEDGSLETRTETRVTTELTLTLPKESAGGS [r16_708_TrROS_Hall] | 2.5 ± 0.34 kcal/mol
SAGGSAGGSAGGAPPPPVKVKVVEIEEEGGERRIRVENEDTGEVVELRVPKGAEVLEELSAGGSAGGSAGGS [r10_1038_TrROS_Hall] | 1.32 ± 0.048 kcal/mol

experiment: folding stability dG unfold (combined trypsin and chymotrypsin); higher = more stable
Method in brief: as §1

Sequence | folding stability dG unfold
SAGGSAGGMEKYKVTITIERPDPNNPDVKTTEVTEVVLTPEEIEKLKKELAPTGYRVEITVIDESAGGSAGG [r6_857_JUSTAS] | 2.45 ± 0.15 kcal/mol
SAMKPKEVVIEISVEELRKLAKELFPEKELTLEELKNLVKELLEKLGIKVKKVEIVKVDPEKKRIVIKVSAG [r14_303_TrROS_Hall] | 2.02 ± 0.21 kcal/mol
SAGGSAMITLEVEVPPGNAEEAAEAVAEELAEKLGVEVTIEKVEVEYDPVTNLTRVPVEIKINPPLSAGGSA [r15_70_JUSTAS] | 0.618 ± 0.24 kcal/mol
SAGGSAGGKIDLKDLKIVKIETVKNENGETFYRVVIEVDGKKIVLTVPENMSLEELLKKLKELSSAGGSAGG [r6_232_TrROS_Hall] | 4.07 ± 0.081 kcal/mol
SAGGSAGGSAMPLTSPEEAARHIKEALERLFPSSFPDRVIDPDVVVFTRPDGRVVALVKLKASAGGSAGGSA [r18_440_TrMRF] | 1.11 ± 0.068 kcal/mol
SAGMIEITLYPPKAVVDVTVTIGGESESRTIPVDGKSKEEVIEEAREEVKAEYPDKAITTKVTEVPGDGSAG [r5_180_JUSTAS] | 0.641 ± 0.071 kcal/mol
SAGGSAGGSAGGSNIEVHYFPDGAIVMTIREPNGWYIKIVARIPPDGNIKITEIELFPMSAGGSAGGSAGGS [r4_246_TrROS] | 3.49 ± 0.2 kcal/mol
SAGGSAMTITVTLTFKSEEEALAAIRELAEALGLEIESVEIRYDPETEEVTVTATIRLPPPPPELLSAGGSA [r15_254_TrROS_Hall] | 2.75 ± 0.11 kcal/mol
SAGGETVTLTLKVETLEELEALAKKLAEETGEEVTIEVIGPDGKKYTFKTPEELKNIPGATVKITIKKSAGG [r13_620_TrROS_Hall] | 2.87 ± 0.15 kcal/mol
SAGGSAGGSASMSYITKVEYKESPEGKLITTTTTTDPTSPNDVKTTTTVTPLPPLNPSPELKSAGGSAGGSA [r18_409_JUSTAS] | -0.525 ± 0.29 kcal/mol
SAGGSAGGYWMISVKIYDPEDGKPIAQMTFMFDSPEEAERIVEEIADALPPGYRVEVDIHPIPNSAGGSAGG [r6_690_TrROS] | 4.85 ± 0.16 kcal/mol
SAGGSAGGSAGVIRVKLKDGPVREIPLEDVPPELLNTPELLAAIEALAREAGYEIESIEASAGGSAGGSAGG [r11_467_TrMRF] | 2.03 ± 0.056 kcal/mol
SAGGSAGGSIKITIYDIMRMLGPNAPPAEWVEKVKHLAKWLADKLGLPDVEIEVEVMSPDQFPSAGGSAGGS [r12_666_TrROS] | 4.06 ± 0.17 kcal/mol
SAGGSAGGEVEIEVTEEEEVPGLPDQEIVTKAKLPDGKTVTIKRTVDPKTGKVSVSFSVIEPPLSAGGSAGG [r6_337_JUSTAS] | 0.363 ± 0.24 kcal/mol
SAGGSAGGSAGGSPLLDFPEPVTTLEETTVTVYFDTNDFTVTLNVTTEVTGDVKRPTVVGSAGGSAGGSAGG [r7_735_JUSTAS] | 0.788 ± 0.11 kcal/mol
SAGGERLTLEELEELLKNLPPGVEEVTITLKLEVEVRTEVRLNEDGSLETRTETRVTTELTLTLPKESAGGS [r16_708_TrROS_Hall] | 3.46 ± 0.25 kcal/mol
SAGGSAGGSAGGAPPPPVKVKVVEIEEEGGERRIRVENEDTGEVVELRVPKGAEVLEELSAGGSAGGSAGGS [r10_1038_TrROS_Hall] | 1.23 ± 0.16 kcal/mol
